Results reported in US20070244297A1.
Like-named read-outs stand apart in the source and are kept apart here.

Columns and labels:
[1] = target: T1, recombinant human neuronal calcium channel α1B-1α2bβ1-2 (human), Q00975
[2] = target: recombinant human neuronal calcium channel α1B-2β1-2 (human), Q00975; experiment: 125I-ω-CgTx GVIA saturation binding to transiently transfected HEK293 cells
[3] = target: T1, recombinant human neuronal calcium …; experiment: as above
[4] = target: recombinant human neuronal calcium channel α1B-2β1-3 (human), Q00975; experiment: as above
[5] = target: recombinant human neuronal calcium channel α1B-1α2bβ1-3 (human); experiment: as above
[6] = target: recombinant human neuronal calcium channel α1B-2α2bβ1-3 (human), Q00975; experiment: as above
[7] = target: recombinant human neuronal calcium channel α1B-1β1-3 (human), Q00975; experiment: as above
[8] = target: recombinant human neuronal calcium channel α1B-2α2bβ1-2 (human); experiment: as above
[9] = target: T2, recombinant human neuronal calcium channel α1B-1α2b (human); experiment: as above
[10] = target: recombinant human neuronal calcium channel α1B-1β1-2 (human), Q00975; experiment: as above
[11] = target: human neuronal calcium channel α1B-1 subunit (expressed alone) (human), Q00975
[12] = target: T2, recombinant human neuronal calcium …

Work on CKSPGSSCSPTSYNCCRSCNPYTKRCYG (modifications not checked) [ω-CgTx, P01522 46-73] yielded a Kd [1] of 0.0546 nM and a binding capacity (Bmax) (sites per cell) [1] of 28700.

CKSPGSSCSPTSYNCCRSCNPYTKRCYG (modifications not checked) [125I-ω-CgTx GVIA, P01522 46-73] showed a Bmax [2] of 2130 sites/cell, a Kd [2] of 0.0164 nM and a Bmax [3] of 45300 sites/cell. The Kd [3] was 0.0549 nM, the fold change of binding sites per cell against α1B-2α2bβ1-2 [3] was 2.5 fold and the fold change of surface receptor density against α1B-1β1-2 [3] was 8 fold. The Bmax [4] was 2940 sites/cell, the Kd [4] was 0.0222 nM and the Bmax [5] was 91000 sites/cell. The Kd [5] was 0.0532 nM, the fold change of binding capacity against α1B-1α2bβ1-2 [5] was 2 fold and the fold change of binding sites per cell against α1B-2α2bβ1-3 [5] was 2.5 fold. It also gave a fold change of surface receptor density against α1B-1β1-3 [5] of 10 fold, a Bmax [6] of 37700 sites/cell and a Kd [6] of 0.0443 nM. The fold change of binding capacity against α1B-2α2bβ1-2 [6] was 2 fold, the fold change of surface receptor density against α1B-2β1-3 [6] was 13 fold and the Bmax [7] was 8730 sites/cell. The Kd [7] was 0.0179 nM, the fold change of surface binding against α1B-1 alone [7] was 10 fold and the Bmax [8] was 19400 sites/cell. The Kd [8] was 0.053 nM, the fold change of surface receptor density against α1B-2β1-2 [8] was 9 fold and the fold change of binding capacity against α1B-1 alone [9] was 3 fold. For the same binder, the Bmax [10] was 5760 sites/cell, the Kd [10] was 0.0179 nM and the fold change of surface binding against α1B-1 alone [10] was 8 fold. The Bmax [11] was 757 sites/cell, the Kd [11] was 0.0317 nM and the Bmax [12] was 2260 sites/cell. It also gave a Kd [12] of 0.0846 nM.
